Tests used:
E. coli [1] = test: Antibacterial activity of Peocin expressed in E. coli BL21 (DE3)/pET-28-peocin; type: cell-based
Description: Add 30 μl E. coli BL21 (DE3)/pET-28-peocin bacterial liquid and 3 μl Kanamycin (100 mg/ml) to 3 ml LB culture broth and incubate for 24 hours. After incubation, add 0.5 ml medium and 50 μl Kanamycin (100 mg/ml) in 50 ml LB culture broth, incubate for 3 hours and add 50 μl 1M IPTG to induce expression of high-level production of protein. Incubate for 9 hours, measure the OD600 nm absorbance of bacterial broth, concentrate the bacterial liquid to OD600 nm=60/ml, wash with 1×PBS for once, place the bacterial broth in centrifuge and centrifuge it for 15 minutes with the speed of 1300 rpm. Remove the supernatant, add 2 ml 1×PBS and lyse by ultrasonic machine under 5 seconds on/5 seconds off cycle for 5 minutes, then again place the bacterial broth in centrifuge and centrifuge it for 20 minutes under 4° C. with the speed of 4000 rpm. Extract the supernatant and filter it using 0.45 μm syringe filter, then preserve the sample in 4° C. freezer to await for further steps. Load E. coli BL21 (DE3)/pET-28 and E. coli BL21 (DE3)/pET-28-peocin in the same SDS-PAGE to confirm that the transformed plasmid do express antibacterial protein in high-level production, then test antibacterial activity and measure inhibitory zone of E. coli BL21 (DE3)/pET-28 and E. coli BL21 (DE3)/pET-28-peocin protein sample on TSB medium containing E. coli to confirm the antibacterial ability of expressed protein.

proteinase K = proteinase K (Parengyodontium album, UniProt P06873); test: Sensitivity of antibacterial protein Peocin to protease; type: physicochemical; conditions: protease K 1 mg/ml, 4 hours, 37° C.
proteinase K, sequence (P06873 106-384): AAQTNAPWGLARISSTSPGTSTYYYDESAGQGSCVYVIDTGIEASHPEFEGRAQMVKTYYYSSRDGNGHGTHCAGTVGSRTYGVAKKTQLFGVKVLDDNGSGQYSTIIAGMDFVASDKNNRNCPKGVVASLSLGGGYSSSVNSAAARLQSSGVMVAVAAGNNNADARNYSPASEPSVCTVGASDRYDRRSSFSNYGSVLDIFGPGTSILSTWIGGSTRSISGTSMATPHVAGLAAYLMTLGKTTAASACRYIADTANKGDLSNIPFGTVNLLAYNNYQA
Description: (§1) Evaluate sensitivity of Peocin to proteinase K and trypsin respectively. First, add 180 μl of purified antibacterial protein peocin into 1.7 ml micro-centrifuge tube, then add 20 μl of 10 mg/ml proteinase K and trypsin respectively for the final concentration of protease to be 1 mg/ml, then stand for 4 hours under 37° C. for reaction. Next, use TSB agar plate containing E. coli to measure the antibacterial activity and inhibitory zone diameter. For comparison, use PBS buffer without antibacterial protein as buffer group, and control group is purified antibacterial protein peocin without protease.

trypsin = test: as above; type: physicochemical; conditions: trypsin 1 mg/ml, 4 hours, 37° C.
Description: as §1

E. coli [2] = test: Antibacterial activity of purified antibacterial protein (Resazurin reduction assay); type: cell-based; conditions: compared with the unpurified culture supernatant
Description: Antibacterial activity is evaluated by using Resazurin reduction assay. The Resazurin reduction assay is used to determine bacteria or cell activity, based on its reaction with mitochondria NADH dehydrogenase, which reduces the original dark blue Resazurin into pink Resorufin. Dilute the indicator bacterial strain E. coli cultured in advance to 1×10^7 CFU/ml and prepare 0.25 mg/ml Resazurin dye for following experiment. 96-well plate was divided into groups of three well as a triplication of one sample set; the total being 21 sets and every well was added with 60 μl TSB medium, 10 μl Resazurin dye, 10 μl indicator strain and 20 μl sample (total 100 μl). The aforementioned 20 μl sample is prepared by adding 0, 1, 2, . . . 20 μl of sample medium respectively, then use TSB medium to fill the total sample volume to 20 μl. Place the sample added 96-well plate in 37° C. incubation box for 12 hours and observe the results. Antibacterial unit (AU) is determined by Resazurin assay, whereas the minimum amount of sample medium required to inhibit color change is 1AU. The antibacterial activity of sampled culture in each time point is represented by how many AU there is in 1 ml of medium.
Take 500 μl liquid bacteria from −80° C. preserved NPUST-1 strain, add it to 50 ml TSB broth culture and culture it for 24 hours under 28° C. for activation. […]

E. coli [3] = test: Evaluation of antibacterial protein pH tolerance; type: physicochemical; conditions: 28° C.
Description: Add the purified antibacterial substance in PBS buffer pH7.4 as control group. The experimental groups comprise pH 2, pH3, pH 4, pH 5, pH 6, pH 7, pH 8, pH 9 and pH 10 group, the buffer used for different pH treatment are Glycine-HCl buffer (pH 2.0), Citrate-phosphate Mcllvaine buffer (pH 3.0, 4.0, 5.0 and 6.0), Sodium-phosphate buffer (pH 7.0), Tris(hydroxymethyl) aminomethane buffer (pH 8.0 and 9.0) and Glycine-NaOH buffer (pH 10.0). First, add 500 μl of purified antibacterial protein in 15 ml centrifuge individually for each group, then add 2 ml of different pH buffer to change pH environment of treated antibacterial substance and stand for 4 hours under 28° C. After 4 hours, measure the antibacterial activity and inhibitory zone diameter using TSB agar plate containing E. coli.

E. coli [4] = test: Evaluation of antibacterial protein temperature tolerance; type: physicochemical; conditions: 30, 40, 50, 60, 70, 80, 90, 100 and 121° C. for 1 hour; control 4° C.
Description: Place 100 μl Peocin under 30° C., 40° C., 50° C., 60° C., 70° C., 80° C., 90° C., 100° C. and 121° C. respectively and stand for an hour, all treatment group except 121° C. group is put in the dry bath incubator, which can set to temperature 30° C.˜100° C. The 121° C. group is put in the sterilizer which can proceed wet heat sterilize at 121° C. Use Peocin stored under 4° C. as control group, and use the TSB agar plate containing E. coli to measure antibacterial activity and inhibitory zone diameter after an hour.

B1: Peocin: bacteriocin; DNA starvation/stationary phase protection protein produced by Paenibacillus ehimensis NPUST-1, amino acid SEQ ID NO: 1 (protein, listed as Paenibacillus ehimensis)
chain: MNEQLTVLLNNQIANWSVLYVKLHNYHWYVKGPQFFTLHTKFEELYTEAALHVDALAERLLALGGKPVATMSGSLRLASVREAEGEESAERMVAALVNDFTLIIGELKSGMKYAESVQDETTGDLLLAIHSSLEKHVWMLNAFLGN
- antibacterial activity when expressed in E. coli (E. coli [1]; inside E. coli BL21 (DE3)/pET-28-peocin after induction): no antibacterial activity
- antibacterial activity of recombinant protein released outside of E. coli (E. coli [1]; supernatant of lysed E. coli BL21 (DE3)/pET-28-peocin, TSB medium containing E. coli): antibacterial effect
- antibacterial activity after protease treatment (proteinase K): stable antibacterial activity
- antibacterial activity after protease treatment (trypsin): stable antibacterial activity
- antibacterial activity after preliminary purification (E. coli [2]): significantly higher
- antibacterial activity remained (E. coli [3]; pH2 for 4 hours): 87%
- antibacterial activity after pH treatment (E. coli [3]; pH 3~10 for 4 hours): remain stable
- antibacterial activity after temperature treatment (E. coli [4]): maintain original antibacterial activity

Source: patent US10689421B2, “Bacteriocin-producing Paenibacillus ehimensis and application thereof” (National Pingtung University of Science and Technology, priority 2018, dated 2020)
